Measurements reported in the Human Domainome abundance scans (Beltran et al. 2025).
± gives the uncertainty stated by the source.

B1: Steroid hormone receptor ERR2, residues 100 to 176; numbered along this chain, O95718 (parent)
chain: KRLCLVCGDIASGYHYGVASCEACKAFFKRTIQGNIEYSCPATNECEITKRRRKSCQACRFMKCLKVGMLKEGVRLD

Variants of: B1
Test: abundance fitness (aPCA) (normalised: wild type 0, dead -1); higher = more abundant; growth selection in yeast, the domain comes from the species named
Conditions: Homo sapiens

Point of comparison: KRLCLVCGDIASGEHYGVASCEACKAFFKRTIQGNIEYSCPATNECEITKRRRKSCQACRFMKCLKVGMLKEGVRLD, abundance fitness 0.101 ± 0.066. Against it:
- KRLCLVCGDIASKYHYGVASCEACKAFFKRTIQGNIEYSCPATNECEITKRRRKSCQACRFMKCLKVGMLKEGVRLD — lower, -0.336 ± 0.23
- KRLCLVCGDIASLYHYGVASCEACKAFFKRTIQGNIEYSCPATNECEITKRRRKSCQACRFMKCLKVGMLKEGVRLD — lower, -0.743 ± 0.12
- KRLCLVCGDIASMYHYGVASCEACKAFFKRTIQGNIEYSCPATNECEITKRRRKSCQACRFMKCLKVGMLKEGVRLD — lower, -0.539 ± 0.19
- KRLCLVCGDIASNYHYGVASCEACKAFFKRTIQGNIEYSCPATNECEITKRRRKSCQACRFMKCLKVGMLKEGVRLD — lower, -0.362 ± 0.21
- KRLCLVCGDIASPYHYGVASCEACKAFFKRTIQGNIEYSCPATNECEITKRRRKSCQACRFMKCLKVGMLKEGVRLD — lower, -0.393 ± 0.18
- KRLCLVCGDIASQYHYGVASCEACKAFFKRTIQGNIEYSCPATNECEITKRRRKSCQACRFMKCLKVGMLKEGVRLD — lower, -0.244 ± 0.2
- KRLCLVCGDIASRYHYGVASCEACKAFFKRTIQGNIEYSCPATNECEITKRRRKSCQACRFMKCLKVGMLKEGVRLD — lower, -0.675 ± 0.14
- KRLCLVCGDIASSYHYGVASCEACKAFFKRTIQGNIEYSCPATNECEITKRRRKSCQACRFMKCLKVGMLKEGVRLD — lower, -0.555 ± 0.12
- KRLCLVCGDIASTYHYGVASCEACKAFFKRTIQGNIEYSCPATNECEITKRRRKSCQACRFMKCLKVGMLKEGVRLD — lower, -0.509 ± 0.17
- KRLCLVCGDIASVYHYGVASCEACKAFFKRTIQGNIEYSCPATNECEITKRRRKSCQACRFMKCLKVGMLKEGVRLD — lower, -0.38 ± 0.09
- KRLCLVCGDIASWYHYGVASCEACKAFFKRTIQGNIEYSCPATNECEITKRRRKSCQACRFMKCLKVGMLKEGVRLD — lower, -0.64 ± 0.31
- KRLCLVCGDIASYYHYGVASCEACKAFFKRTIQGNIEYSCPATNECEITKRRRKSCQACRFMKCLKVGMLKEGVRLD — lower, -0.867 ± 0.33
- KRLCLVCGDIASGAHYGVASCEACKAFFKRTIQGNIEYSCPATNECEITKRRRKSCQACRFMKCLKVGMLKEGVRLD — within error, 0.163 ± 0.063
- KRLCLVCGDIASGCHYGVASCEACKAFFKRTIQGNIEYSCPATNECEITKRRRKSCQACRFMKCLKVGMLKEGVRLD — within error, 0.068 ± 0.079
- KRLCLVCGDIASGFHYGVASCEACKAFFKRTIQGNIEYSCPATNECEITKRRRKSCQACRFMKCLKVGMLKEGVRLD — within error, 0.063 ± 0.083
- KRLCLVCGDIASGGHYGVASCEACKAFFKRTIQGNIEYSCPATNECEITKRRRKSCQACRFMKCLKVGMLKEGVRLD — lower, -0.017 ± 0.051
- KRLCLVCGDIASGHHYGVASCEACKAFFKRTIQGNIEYSCPATNECEITKRRRKSCQACRFMKCLKVGMLKEGVRLD — within error, -0.034 ± 0.093
- KRLCLVCGDIASGIHYGVASCEACKAFFKRTIQGNIEYSCPATNECEITKRRRKSCQACRFMKCLKVGMLKEGVRLD — within error, 0.03 ± 0.091
- KRLCLVCGDIASGKHYGVASCEACKAFFKRTIQGNIEYSCPATNECEITKRRRKSCQACRFMKCLKVGMLKEGVRLD — within error, 0.03 ± 0.077
- KRLCLVCGDIASGLHYGVASCEACKAFFKRTIQGNIEYSCPATNECEITKRRRKSCQACRFMKCLKVGMLKEGVRLD — within error, 0.04 ± 0.047
- KRLCLVCGDIASGMHYGVASCEACKAFFKRTIQGNIEYSCPATNECEITKRRRKSCQACRFMKCLKVGMLKEGVRLD — lower, -0.276 ± 0.083
- KRLCLVCGDIASGNHYGVASCEACKAFFKRTIQGNIEYSCPATNECEITKRRRKSCQACRFMKCLKVGMLKEGVRLD — within error, -0.022 ± 0.11
- KRLCLVCGDIASGPHYGVASCEACKAFFKRTIQGNIEYSCPATNECEITKRRRKSCQACRFMKCLKVGMLKEGVRLD — lower, -0.315 ± 0.12
- KRLCLVCGDIASGQHYGVASCEACKAFFKRTIQGNIEYSCPATNECEITKRRRKSCQACRFMKCLKVGMLKEGVRLD — lower, -0.145 ± 0.083
- KRLCLVCGDIASGRHYGVASCEACKAFFKRTIQGNIEYSCPATNECEITKRRRKSCQACRFMKCLKVGMLKEGVRLD — lower, -0.446 ± 0.075
- KRLCLVCGDIASGSHYGVASCEACKAFFKRTIQGNIEYSCPATNECEITKRRRKSCQACRFMKCLKVGMLKEGVRLD — lower, -0.111 ± 0.055
- KRLCLVCGDIASGVHYGVASCEACKAFFKRTIQGNIEYSCPATNECEITKRRRKSCQACRFMKCLKVGMLKEGVRLD — within error, 0.136 ± 0.043
- KRLCLVCGDIASGWHYGVASCEACKAFFKRTIQGNIEYSCPATNECEITKRRRKSCQACRFMKCLKVGMLKEGVRLD — within error, 0.032 ± 0.062
- KRLCLVCGDIASGYCYGVASCEACKAFFKRTIQGNIEYSCPATNECEITKRRRKSCQACRFMKCLKVGMLKEGVRLD — lower, -0.435 ± 0.11
- KRLCLVCGDIASGYDYGVASCEACKAFFKRTIQGNIEYSCPATNECEITKRRRKSCQACRFMKCLKVGMLKEGVRLD — lower, -0.211 ± 0.1
- KRLCLVCGDIASGYEYGVASCEACKAFFKRTIQGNIEYSCPATNECEITKRRRKSCQACRFMKCLKVGMLKEGVRLD — within error, -0.045 ± 0.085
- KRLCLVCGDIASGYFYGVASCEACKAFFKRTIQGNIEYSCPATNECEITKRRRKSCQACRFMKCLKVGMLKEGVRLD — lower, -0.197 ± 0.088
- KRLCLVCGDIASGYGYGVASCEACKAFFKRTIQGNIEYSCPATNECEITKRRRKSCQACRFMKCLKVGMLKEGVRLD — lower, -0.068 ± 0.048
- KRLCLVCGDIASGYIYGVASCEACKAFFKRTIQGNIEYSCPATNECEITKRRRKSCQACRFMKCLKVGMLKEGVRLD — lower, -0.115 ± 0.081
